Assay results published in publication PMC2671235 (Biochemistry, 2009).
Ends that are not written are not given here.

B1: Annexin I peptide (peptide)
peptide: Ac-AMVSEFLKQAWFIE
B2: S100A11 (natural protein, human, UniProt P31949 1-105, looked up)
chain: MAKISSPTETERCIESLIAVFQKYAGKDGYNYTLSKTEFLSFMNTELAAFTKNQKDPGVLDRMMKKLDTNSDGQLDFSEFLNLIGGLAMACHDSFLKAVPSQKRT

Columns and labels:
[1] = target: B2; assay: ITC
[2] = target: T1, S100A6 (human, UniProt P06703 1-90); assay: ITC
[3] = target: B2; assay: other fluorescence titration
[4] = target: T1, S100A6; assay: other fluorescence titration
[5] = target: B1; assay: ITC
[6] = target: S100A10 (human, UniProt P60903 1-97); assay: ITC
Sequence of S100A10 (P60903 whole entry): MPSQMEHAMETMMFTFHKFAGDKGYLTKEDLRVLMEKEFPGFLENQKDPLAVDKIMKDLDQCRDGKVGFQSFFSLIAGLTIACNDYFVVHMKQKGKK

[7] = target: B2; assay: ITC; remark: listed apart in the source

Binder: B1
- Kd [1]: 5 ± 2 µM
- Kd [2]: 13 ± 4 µM
- Kd [3]: 5 ± 1 µM
- Kd [4]: 17 ± 4 µM

Binder: B2
- dH at 15°C [5]: -0.956 kcal/mol
- dH at 35°C [5]: -7.17 kcal/mol
- stoichiometry N [5]: 2 binding sites per dimer

Binder: Ac-STVHEILSKLSLEGY [Annexin II peptide]
- stoichiometry N [6]: 2 binding sites per dimer
- stoichiometry N [7]: 2 binding sites per dimer
